Assay [1] has as its target FPRL1 on freshly isolated monocytes (human) (UniProt P25090). As to the kind of experiment: cell-based or functional assay.
The target of assay [2] is full length GPI-linked D1D2D3 (cell surface uPAR) (human) (UniProt Q03405). Briefly: cell-based or functional assay.
Assay [3] addresses T1, soluble recombinant uPAR fragment D2D3 93-274 (human, UniProt Q03405 115-296).
T1 construct: Purified from COS-7 supernatant on an anti-FLAG column; Mature-protein numbering
As to the kind of experiment: standard ELISA, coated purified protein, 7G1 as detecting antibody (FIG. 7A).

Sequence of full length GPI-linked D1D2D3 (cell surface uPAR) (human) (Q03405 23-305, one chain of several): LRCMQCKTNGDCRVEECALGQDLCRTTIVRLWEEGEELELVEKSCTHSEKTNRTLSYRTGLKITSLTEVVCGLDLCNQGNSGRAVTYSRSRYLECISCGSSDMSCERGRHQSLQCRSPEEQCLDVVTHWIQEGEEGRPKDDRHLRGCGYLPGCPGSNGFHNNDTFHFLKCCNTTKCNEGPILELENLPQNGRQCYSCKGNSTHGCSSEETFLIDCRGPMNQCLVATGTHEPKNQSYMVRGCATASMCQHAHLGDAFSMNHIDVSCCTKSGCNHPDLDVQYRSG
Sequence of FPRL1 on freshly isolated monocytes (human) (P25090 whole entry): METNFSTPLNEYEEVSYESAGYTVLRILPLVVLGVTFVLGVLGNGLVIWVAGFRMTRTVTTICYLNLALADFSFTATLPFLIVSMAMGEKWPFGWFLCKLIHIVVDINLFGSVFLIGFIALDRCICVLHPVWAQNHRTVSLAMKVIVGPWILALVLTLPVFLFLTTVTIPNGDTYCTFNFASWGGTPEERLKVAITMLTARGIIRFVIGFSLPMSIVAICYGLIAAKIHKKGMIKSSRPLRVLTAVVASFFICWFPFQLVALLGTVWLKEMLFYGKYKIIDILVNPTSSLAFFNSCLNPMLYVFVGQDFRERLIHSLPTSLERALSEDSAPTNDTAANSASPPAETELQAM
T1 sequence (Q03405 other isoform, or with tags, fused parts or gaps limits assumed): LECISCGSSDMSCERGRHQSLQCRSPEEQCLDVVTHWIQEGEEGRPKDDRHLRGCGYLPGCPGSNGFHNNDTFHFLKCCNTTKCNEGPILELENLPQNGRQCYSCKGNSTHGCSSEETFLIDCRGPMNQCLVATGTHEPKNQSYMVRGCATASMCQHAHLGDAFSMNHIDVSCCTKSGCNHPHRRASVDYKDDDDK

In the case of MMK-1, FPRL1 ligand (peptide), in assay [1], the % induced migration of monocytes, MMK-1 as chemoattractant, rabbit IgG control present turned out to be 303% and the Migration fold increase, MMK-1 as chemoattractant, rabbit IgG control present is 2.94 fold.

B1: monoclonal antibody 7G1 (antibody, V domains shown)
VH: VQLQESGPELKKPGETVKISCKASGYTFTDYSMHWVKQAPGKGLKCMGWINTETTKSTYADDFKGRFALSLETSASTVYLQISNLKNEDTATYFCAREASYGEFDYWGQGTTVTVSS
VL: DIVLTQSPASLAVSLGQRATISCRASKSVSTSGYSYMHWYQQKPGQPPKLLIYLASNLESGVPARFSGSGSGTDFTLDIHPVEEEDAATYYCQHSRELPYTFGGGTKLELK
In the case of B1, in assay [2], the % induced migration (ATF) of monocytes, antibody 50 µg/ml was 210%; the % of inhibition (referred to MOPC treatment) was determined as 10%; the Migration fold increase was determined as 2.44 fold. Besides, in assay [3], the “fold lower recognition than of D2D3 84-274” value was not below 100 fold.

Values taken from patent US20090202550A1 (WILEX, published 2009).
